Laboratory results taken from patent publication US20150307569, “HETEROGENEOUS NUCLEAR RIBONUCLEOPROTEIN A2* (HNRNP A2*) AND NUCLEIC ACID ENCODING THE SAME” (Institute of Zoology, Chinese Academy of Sciences, published 2015).

What was measured:
[1] = target: 28-kDa telomeric DNA-binding protein (hnRNP A2*), rat liver nuclear matrix (Rattus norvegicus); assay: Southwestern blot; conditions: label: 5' 32P
[2] = target: T1, hnRNP A2* (hnRNP A2 isoform lacking exons 7-9) (Rattus norvegicus); assay: EMSA; 10 mM Tris pH 8.0, 1 mM EDTA, 150 mM KCl, 4 C; 400 nM protein, 80 nM DNA; conditions: tags: His6 (pET-28b, E. coli BL21(DE3)); label: 5' 32P
Method: (§1) 80 nM oligonucleotides having 5′ ends labeled with [γ-³²P] ATP (³²P-labeled oligonucleotides) were incubated with 400 nM recombinant hnRNP A2* at 4° C. for 30 min in a binding buffer [10 mM Tris(hydroxymethyl)metyl aminomethane (Tris) (pH 8.0), 1 mM ethylenediaminetetraacetic acid (EDTA), and 150 mM KCl] and resolved on a 8% (wt/vol) native PAGE gel. The gel was then visualized by phosphoimaging using a Typhoon PhosphorImager.
(§2) The cDNA encoding hnRNP A2* was cloned and expressed in Escherichia coli, producing a recombinant protein with the expected molecular mass (FIG. 2A). The exons 7-9 coded the glycine-rich domain (GRD) and provided additional DNA/RNA binding sites in addition to two RNA recognition sites (RRM). […] This is in contrast to hnRNP which has a broad DNA-binding specificity with the consensus sequence N(A,C,T)(C,T)(A,G)G(C,G,T)(A,T)NNN. […] The binding specificity of hnRNP A2* was further verified by constructing 10 mutant variants of the MBS, each carrying a single mutation to cytosine at each nucleotide. All the mutations within the MBS abolished the bindings except the mutations of thymines in the vicinity of GGG (FIG. 2E).

[3] = target: T1, hnRNP A2* (hnRNP A2 isoform lacking …); assay: competition; very low or no binding; conditions: tags: His6 (pET-28b, E. coli BL21(DE3))
Method: as §1, §2

[4] = target: T1, hnRNP A2* (hnRNP A2 isoform lacking …); assay: EMSA; per text; conditions: tags: His6 (pET-28b, E. coli BL21(DE3)); label: 5' 32P
Method: as §1, §2

[5] = target: T1, hnRNP A2* (hnRNP A2 isoform lacking …); assay: EMSA; thymine next to G-tract tolerated; conditions: tags: His6 (pET-28b, E. coli BL21(DE3)); label: 5' 32P
Method: as §1, §2

[6] = target: T1, hnRNP A2* (hnRNP A2 isoform lacking …); assay: EMSA; G-quadruplex substrate complex; stimulates telomerase; conditions: tags: His6 (pET-28b, E. coli BL21(DE3)); G4
Method: as §1

[7] = target: T1, hnRNP A2* (hnRNP A2 isoform lacking …); assay: EMSA; minimal binding site; conditions: tags: His6 (pET-28b, E. coli BL21(DE3)); label: 5' 32P
Method: as §1, §2

[8] = target: T1, hnRNP A2* (hnRNP A2 isoform lacking …); assay: EMSA; 150 mM KCl, 4 C; conditions: tags: His6 (pET-28b, E. coli BL21(DE3)); label: 5' 32P
Method: as §1, §2

[9] = target: T1, hnRNP A2* (hnRNP A2 isoform lacking …); assay: EMSA; per text: all MBS mutations abolish except thymines near GGG; conditions: tags: His6 (pET-28b, E. coli BL21(DE3)); label: 5' 32P
Method: as §1, §2

T1 sequence (chain, as listed by the source): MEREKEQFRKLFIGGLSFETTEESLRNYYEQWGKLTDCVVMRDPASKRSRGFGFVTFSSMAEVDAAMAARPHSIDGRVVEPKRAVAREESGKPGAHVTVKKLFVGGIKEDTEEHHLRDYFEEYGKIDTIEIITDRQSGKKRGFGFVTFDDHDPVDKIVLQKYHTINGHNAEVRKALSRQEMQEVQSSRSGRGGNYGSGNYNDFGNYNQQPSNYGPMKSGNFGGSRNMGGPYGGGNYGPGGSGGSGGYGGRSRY
Chain of 28-kDa telomeric DNA-binding protein (hnRNP A2*), rat liver nuclear matrix (Rattus norvegicus) (chain, as listed by the source): as above

B1: (TTAGGG)3 (ssDNA)
DNA: TTAGGGTTAGGGTTAGGG
binding result [1]: binds | binding result [2]: binds

B2: (TAAGGG)3 (ssDNA)
DNA: TAAGGGTAAGGGTAAGGG
binding result [3]: no binding

B3: 15-mer G5C (ssDNA)
DNA: TAGGCTTAGGGTTAG
modifications: [none]
binding result [4]: no binding

B4: 15-mer T6C (ssDNA)
DNA: TAGGGCTAGGGTTAG
modifications: [none]
binding result [5]: binds

B5: 15-mer A8C (ssDNA)
DNA: TAGGGTTCGGGTTAG
modifications: [none]
binding result [4]: no binding

B6: 15-mer G9C (ssDNA)
DNA: TAGGGTTACGGTTAG
modifications: [none]
binding result [4]: no binding

B7: 15-mer G10C (ssDNA)
DNA: TAGGGTTAGCGTTAG
modifications: [none]
binding result [4]: no binding

B8: TSG4 (structured_DNA)
DNA: GGGCTAGGGCTAGGGCTAGGGAGTT
binding result [6]: binds

B9: (TTGGGG)3 (ssDNA)
DNA: TTGGGGTTGGGGTTGGGG
binding result [3]: no binding

B10: (TTAGAG)3 (ssDNA)
DNA: TTAGAGTTAGAGTTAGAG
binding result [3]: no binding

B11: double-stranded (TTAGGG)3 (dsDNA)
DNA 1: TTAGGGTTAGGGTTAGGG
DNA 2: CCCTAACCCTAACCCTAA
binding result [3]: no binding

B12: MBS (ssDNA)
DNA: TAGGGTTAGG
binding result [7]: binds

B13: MBS-containing 15-mer W (ssDNA)
DNA: TAGGGTTAGGGTTAG
binding result [8]: binds

B14: 15-mer A2C (ssDNA)
DNA: TCGGGTTAGGGTTAG
modifications: [none]
binding result [9]: no binding

B15: 15-mer G3C (ssDNA)
DNA: TACGGTTAGGGTTAG
modifications: [none]
binding result [4]: no binding

B16: 15-mer G4C (ssDNA)
DNA: TAGCGTTAGGGTTAG
modifications: [none]
binding result [4]: no binding
